Among the data in PMC12358912 are Kd values, retold here.

The target in series [1] is SMC1/SMC3/SCC1 cohesin Trimer (UniProt Q14683). Put plainly: mass photometry; in solution; two components mixed and equilibrated: 150 nM cohesin Trimer sample with 150 nM NIPBL, or with 150 nM or 80 nM STAG1 (total protein concentrations); KD from individual mass distributions; ATP is said not to affect these 1:1 interactions.
Series [2] addresses NIPBL (human) (UniProt Q6KC79). Put plainly: mass photometry. Conditions: typically 150 nM protein + 150 nM DNA, then diluted (10-fold for NIPBL), phosphate buffer (HEPES for MC604 repeat), 50 mM NaCl for ATP ….
Series [3] has as its target cohesin Trimer (SMC1/SMC3/SCC1);STAG1 (human;human) (UniProt Q14683+Q9UQE7+O60216+Q8WVM7). Put plainly: mass photometry. Conditions: typically 150 nM protein + 150 nM DNA, then diluted (10-fold for NIPBL), phosphate buffer (HEPES for MC604 repeat), 50 mM NaCl for ATP ….
Series [4] deals with NIPBL-MAU2 (human) (UniProt Q6KC79+Q9Y6X3). Briefly: mass photometry. Conditions: typically 150 nM protein + 150 nM DNA, then diluted (10-fold for NIPBL), phosphate buffer (HEPES for MC604 repeat), 50 mM NaCl for ATP ….
The target in series [5] is T1, STAG1 (human) (UniProt Q8WVM7).
T1 sequence: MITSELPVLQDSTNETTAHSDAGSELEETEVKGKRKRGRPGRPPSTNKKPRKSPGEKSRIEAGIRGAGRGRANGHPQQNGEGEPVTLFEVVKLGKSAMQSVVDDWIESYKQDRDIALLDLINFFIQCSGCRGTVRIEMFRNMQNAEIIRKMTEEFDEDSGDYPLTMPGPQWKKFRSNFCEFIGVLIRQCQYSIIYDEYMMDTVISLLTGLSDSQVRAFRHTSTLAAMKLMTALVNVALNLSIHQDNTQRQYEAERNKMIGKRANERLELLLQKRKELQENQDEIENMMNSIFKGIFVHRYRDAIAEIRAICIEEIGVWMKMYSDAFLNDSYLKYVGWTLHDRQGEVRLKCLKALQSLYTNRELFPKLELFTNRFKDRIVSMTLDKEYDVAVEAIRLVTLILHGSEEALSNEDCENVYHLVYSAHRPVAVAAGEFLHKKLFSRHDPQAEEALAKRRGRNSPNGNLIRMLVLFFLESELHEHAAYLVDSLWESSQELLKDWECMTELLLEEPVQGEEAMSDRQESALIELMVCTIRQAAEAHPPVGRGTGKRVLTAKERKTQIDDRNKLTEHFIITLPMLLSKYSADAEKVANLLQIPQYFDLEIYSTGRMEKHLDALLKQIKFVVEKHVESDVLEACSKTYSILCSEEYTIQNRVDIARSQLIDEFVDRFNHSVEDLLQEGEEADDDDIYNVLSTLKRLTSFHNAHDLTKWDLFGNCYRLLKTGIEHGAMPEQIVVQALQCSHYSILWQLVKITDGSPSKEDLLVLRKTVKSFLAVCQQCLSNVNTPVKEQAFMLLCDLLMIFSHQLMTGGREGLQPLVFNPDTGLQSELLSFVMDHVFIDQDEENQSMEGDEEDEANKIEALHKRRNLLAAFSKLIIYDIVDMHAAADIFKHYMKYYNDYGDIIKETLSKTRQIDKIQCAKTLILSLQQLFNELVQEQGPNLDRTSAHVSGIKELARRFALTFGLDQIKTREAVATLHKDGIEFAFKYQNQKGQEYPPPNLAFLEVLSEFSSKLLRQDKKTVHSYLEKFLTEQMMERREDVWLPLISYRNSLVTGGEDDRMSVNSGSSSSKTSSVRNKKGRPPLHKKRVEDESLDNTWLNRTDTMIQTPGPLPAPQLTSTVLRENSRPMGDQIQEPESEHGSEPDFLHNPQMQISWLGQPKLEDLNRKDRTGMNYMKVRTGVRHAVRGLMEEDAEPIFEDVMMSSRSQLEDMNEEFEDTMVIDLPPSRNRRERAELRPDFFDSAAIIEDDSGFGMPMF
Briefly: mass photometry. Conditions: typically 150 nM protein + 150 nM DNA, then diluted (10-fold for NIPBL), phosphate buffer (HEPES for MC604 repeat), 50 mM NaCl for ATP ….

pKd: −log10 of the molar value.

Chain of cohesin Trimer (SMC1/SMC3/SCC1);STAG1 (human;human) (Q14683 whole entry, chain 1 of 3): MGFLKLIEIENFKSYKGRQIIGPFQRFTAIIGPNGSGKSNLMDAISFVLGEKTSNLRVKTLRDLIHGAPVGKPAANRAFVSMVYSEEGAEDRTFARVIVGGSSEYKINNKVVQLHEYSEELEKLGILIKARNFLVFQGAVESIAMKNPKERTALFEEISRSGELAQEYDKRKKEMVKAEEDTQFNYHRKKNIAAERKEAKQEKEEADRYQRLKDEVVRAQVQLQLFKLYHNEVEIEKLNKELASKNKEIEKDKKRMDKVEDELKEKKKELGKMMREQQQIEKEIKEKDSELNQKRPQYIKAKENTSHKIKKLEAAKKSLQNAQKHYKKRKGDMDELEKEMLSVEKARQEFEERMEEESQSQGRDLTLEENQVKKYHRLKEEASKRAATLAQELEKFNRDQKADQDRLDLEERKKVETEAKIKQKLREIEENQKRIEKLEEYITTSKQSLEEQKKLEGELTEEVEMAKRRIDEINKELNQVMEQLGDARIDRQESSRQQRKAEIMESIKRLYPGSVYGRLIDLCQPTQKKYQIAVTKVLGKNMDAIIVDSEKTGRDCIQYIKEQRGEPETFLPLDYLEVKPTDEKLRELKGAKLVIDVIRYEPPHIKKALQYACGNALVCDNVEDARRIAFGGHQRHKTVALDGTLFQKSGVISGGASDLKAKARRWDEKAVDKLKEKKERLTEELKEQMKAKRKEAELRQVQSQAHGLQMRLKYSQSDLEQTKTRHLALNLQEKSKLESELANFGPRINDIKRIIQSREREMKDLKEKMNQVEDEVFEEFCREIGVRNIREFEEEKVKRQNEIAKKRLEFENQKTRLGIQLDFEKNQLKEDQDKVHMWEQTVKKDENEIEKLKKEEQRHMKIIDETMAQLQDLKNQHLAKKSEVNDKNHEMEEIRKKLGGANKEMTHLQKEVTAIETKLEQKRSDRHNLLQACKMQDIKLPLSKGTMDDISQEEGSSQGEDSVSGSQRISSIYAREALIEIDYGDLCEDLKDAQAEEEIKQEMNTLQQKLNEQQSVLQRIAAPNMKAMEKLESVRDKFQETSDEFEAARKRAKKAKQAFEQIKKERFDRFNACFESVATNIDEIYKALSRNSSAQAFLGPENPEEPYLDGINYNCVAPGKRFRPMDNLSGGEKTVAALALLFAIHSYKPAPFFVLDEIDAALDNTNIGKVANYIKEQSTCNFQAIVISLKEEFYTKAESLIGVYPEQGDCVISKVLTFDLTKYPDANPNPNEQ
Chain of cohesin Trimer (SMC1/SMC3/SCC1);STAG1 (human;human) (Q9UQE7 whole entry, chain 2 of 3): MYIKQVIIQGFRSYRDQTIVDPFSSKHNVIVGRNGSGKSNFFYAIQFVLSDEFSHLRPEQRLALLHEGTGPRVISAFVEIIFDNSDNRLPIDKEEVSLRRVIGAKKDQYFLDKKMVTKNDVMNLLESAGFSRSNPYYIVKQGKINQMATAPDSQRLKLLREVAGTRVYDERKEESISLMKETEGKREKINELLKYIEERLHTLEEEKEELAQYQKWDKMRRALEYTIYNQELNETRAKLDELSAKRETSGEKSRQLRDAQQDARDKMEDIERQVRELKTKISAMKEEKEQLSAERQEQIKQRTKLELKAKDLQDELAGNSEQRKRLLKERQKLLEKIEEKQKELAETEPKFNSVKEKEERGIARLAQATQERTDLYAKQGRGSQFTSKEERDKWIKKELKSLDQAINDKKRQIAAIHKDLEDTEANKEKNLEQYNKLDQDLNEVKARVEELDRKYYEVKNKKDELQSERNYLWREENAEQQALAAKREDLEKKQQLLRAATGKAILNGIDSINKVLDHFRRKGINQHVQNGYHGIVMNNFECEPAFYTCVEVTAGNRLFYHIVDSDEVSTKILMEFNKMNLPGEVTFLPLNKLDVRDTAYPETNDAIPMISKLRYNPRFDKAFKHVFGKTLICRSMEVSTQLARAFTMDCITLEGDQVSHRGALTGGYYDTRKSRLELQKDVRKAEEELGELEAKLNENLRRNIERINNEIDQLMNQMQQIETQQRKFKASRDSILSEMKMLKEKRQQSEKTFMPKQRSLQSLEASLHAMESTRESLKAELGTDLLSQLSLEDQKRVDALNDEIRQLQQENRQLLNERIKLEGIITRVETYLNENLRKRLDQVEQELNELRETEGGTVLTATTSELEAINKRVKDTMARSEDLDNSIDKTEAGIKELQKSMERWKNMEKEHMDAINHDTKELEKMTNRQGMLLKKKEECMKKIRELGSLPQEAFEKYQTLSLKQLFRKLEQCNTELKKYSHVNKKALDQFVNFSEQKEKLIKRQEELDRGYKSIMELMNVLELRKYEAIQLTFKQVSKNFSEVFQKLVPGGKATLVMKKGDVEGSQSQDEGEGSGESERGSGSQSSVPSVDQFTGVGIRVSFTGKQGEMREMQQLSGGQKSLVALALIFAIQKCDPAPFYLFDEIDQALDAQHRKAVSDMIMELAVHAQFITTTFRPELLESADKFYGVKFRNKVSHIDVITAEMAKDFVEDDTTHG
Chain of cohesin Trimer (SMC1/SMC3/SCC1);STAG1 (human;human) (O60216 whole entry, chain 3 of 3): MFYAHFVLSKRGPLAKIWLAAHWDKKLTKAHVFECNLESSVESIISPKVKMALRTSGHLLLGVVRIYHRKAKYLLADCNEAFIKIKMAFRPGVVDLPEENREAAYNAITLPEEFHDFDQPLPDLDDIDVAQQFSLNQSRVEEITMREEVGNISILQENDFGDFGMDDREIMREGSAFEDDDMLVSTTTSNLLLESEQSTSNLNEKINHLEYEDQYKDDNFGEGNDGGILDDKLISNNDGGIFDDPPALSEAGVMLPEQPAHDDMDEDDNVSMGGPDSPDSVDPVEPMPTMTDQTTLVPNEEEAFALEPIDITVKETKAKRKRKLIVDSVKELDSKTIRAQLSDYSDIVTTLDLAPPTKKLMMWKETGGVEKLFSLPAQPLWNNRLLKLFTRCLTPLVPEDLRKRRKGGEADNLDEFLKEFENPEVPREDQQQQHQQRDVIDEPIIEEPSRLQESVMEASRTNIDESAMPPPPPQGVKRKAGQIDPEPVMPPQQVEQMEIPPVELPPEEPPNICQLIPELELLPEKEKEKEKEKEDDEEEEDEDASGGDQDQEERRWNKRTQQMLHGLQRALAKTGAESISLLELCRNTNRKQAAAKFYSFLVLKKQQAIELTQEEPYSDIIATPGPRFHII
Chain of SMC1/SMC3/SCC1 cohesin Trimer (Q14683 whole entry, chain 1 of 3): as the sequence (Q14683 whole entry, chain 1 of 3) above
Chain of SMC1/SMC3/SCC1 cohesin Trimer (chain, as listed by the source, chain 2 of 3): as the sequence (Q9UQE7 whole entry, chain 2 of 3) above
Chain of SMC1/SMC3/SCC1 cohesin Trimer (chain, as listed by the source, chain 3 of 3): as the sequence (O60216 whole entry, chain 3 of 3) above

NIPBL, Q6KC79 1-2804 had a pKd in series [1] of 7.70.

On to “CATATGTGCAGTCCCCCCATAAAAAAACCCGCCGAAGCGGGTTTTTACGTTATTTGCGGATTTTAATTAACTAGTTCTAGAGCTCACGTGCAGCTGTCGACGGTACCTGCAGGCCGGCCAGTACTGGGCCCCAACAGATAAAACGAAAGGCCCAGTCTTTCGACTGAGCCTTTCGTTTTATTGGGCCCCCTTGGTCAAATTGGGTATACCCATTTGGGCCTGGTCTGGCCGGCATGGCGCATTACAGCGGTACGCAATTTAAATGCGCCTAGCGCATTTTCCCGACCTTAATGCGCCTCGCG (double strand) [MC302 supercoiled minicircle]”, for which the pKd was > 8.00 in series [2], 6.77 in series [3], 7.91 in series [4] and 5.87 in series [5].

As a reminder, the pKd is −log10 of the Kd, conventionally taken in molar units.
